From paper PMC7054990

Target: ALIX BRO1 domain (human)
Assay: recruitment to supported lipid bilayers (time-lapse confocal fluorescence microscopy); supported bilayers DOPC:DOPE:PI:LBPA (4.99:2:1:2 mol) preincubated 40 min with 3.7 µM ALIX BRO1 domain or mutant, unbound protein removed, then 0.64 µM CHMP4B-488 for 25 min; ALIX buffer: 25 mM Hepes pH 7.4, 0.3 mM BAPTA, 0.3 mM NTA, 0.3 mM hydroxyethyl EDTA, 686 µM CaCl2 (20 µM free calcium)

Chain of ALIX BRO1 domain (human) (Q9WU78 1-359): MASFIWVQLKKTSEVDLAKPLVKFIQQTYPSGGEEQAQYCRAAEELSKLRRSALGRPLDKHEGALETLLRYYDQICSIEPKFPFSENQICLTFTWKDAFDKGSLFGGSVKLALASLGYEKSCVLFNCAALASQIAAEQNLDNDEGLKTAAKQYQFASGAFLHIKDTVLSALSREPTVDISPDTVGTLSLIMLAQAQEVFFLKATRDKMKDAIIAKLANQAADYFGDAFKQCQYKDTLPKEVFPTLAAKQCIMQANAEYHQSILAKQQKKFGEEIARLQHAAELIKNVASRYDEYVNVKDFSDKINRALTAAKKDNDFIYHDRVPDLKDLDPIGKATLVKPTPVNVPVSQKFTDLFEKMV

B1: Alexa Fluor 488 CHMP4B (natural protein)
chain: MSVFGKLFGAGGGKAGKGGPTPQEAIQRLRDTEEMLSKKQEFLEKKIEQELTAAKKHGTKNKRAALQALKRKKRYEKQLAQIDGTLSTIEFQREALENANTNTEVLKNMGYAAKAMKAAHDNMDIDKVDELMQDIADQQELAEEISTAISKPVGFGEEFDEDELMAELEELEQEELDKNLLEISGPETVPLPNVPSIALPSKPAKKKEEEDDDMKELENWAGSM
modifications: Alexa Fluor 488 (labelled with Alexa Fluor 488 tetrafluorophenyl ester, 1:2 protein:dye)
- apparent t1/2 of recruitment: 5 min
